Tested on: NaPi2b expressing tumors
Experiment: Phase 1b study of XMT-1536: duration on study and reason for discontinuation
Format: in vivo, human
Text: The study presented herein is an open label, multi-center Phase 1b study of XMT-1536 administered as an intravenous infusion once every three or four weeks. The dose escalation (DES) part of the study will establish the maximum tolerated dose (MTD) or recommended Phase 2 dose (RP2D) for XMT-1536 in patients with a number of tumor types likely to express NaPi2b, with a focus on patients with platinum-resistant ovarian cancer and non-squamous non-small cell lung cancer (NSCLC). […] The RP2D may differ from the MTD and may take into account tolerability, pharmacokinetic and pharmacodynamic measures, and efficacy of XMT-1536 based on RECIST 1.1. After the first cycle, patients may continue to receive XMT-1536 until disease progression provided the drug is well-tolerated and patients continue to derive clinical benefit in the opinion of the Investigator. The DES segment of the study utilized an accelerated titration design. The first 3-week cycle of treatment constitutes the dose limiting toxicity (DLT) evaluation period. For the first two dose levels, a minimum of 1 patient was treated at each dose level. If this patient experiences a treatment-emergent adverse event of Grade 2 or higher, 2 additional patients will be added at this dose level, and the study will subsequently follow a 3+3 design, as described below. […] Starting with Dose Level 3, the study will follow a standard 3+3 design, with 3 patients enrolled initially at each dose level. […] However, in the event of 1 DLT, 3 additional patients will be enrolled at the same dose level. Any dose level with 2 or more DLTs will be considered to exceed the MTD and subsequent patients will be enrolled at lower dose level(s). After the first cycle, patients may continue to receive XMT-1536 until disease progression if the drug is well-tolerated and patients continue to derive clinical benefit in the opinion of the Investigator.
After an August 2018 protocol amendment, each cycle will be 4-week (28 day) dose cycle. The first two, 4-week cycles of treatment (56 days) constitutes the dose limiting toxicity (DLT) evaluation period. Beginning with this amendment, up to 10 patients will be enrolled for evaluation at 20.0 mg/m^2 under the new 4-week cycle dose regimen. If that dose is cleared by the SRC, subsequent dose groups will follow a modified 3+3 design. Three patients will be enrolled initially and if toxicity issues arise, the SRC will review all pertinent data and may decide to add more patients to fully evaluate a dose in question and/or lower the dose. […] The observation period for DLTs is 56 days, between Day 1 through the end of Cycle 2 which includes the pre-dose assessments before receiving the Cycle 3 dose. A maximum of ten patients will be enrolled per dose level prior to the SRM. that will be conducted no later than 5 days after at least the sixth patient dosed in each level has completed Cycle 2, Day 28 evaluations. The data available for the patients dosed in all prior will be factored into the data review for each applicable dose escalation SRM. Any dose level with 2 or more DLTs occurring in 6 or fewer treated patients will be considered to exceed the MTD and subsequent patients will be enrolled at lower dose level(s). After the second cycle, patients may continue to receive XMT-1536 until disease progression if the drug is well-tolerated and patients continue to derive clinical benefit in the opinion of the Investigator. After completion of DES, the EXP segment of the study will be opened.
Treatment will continue indefinitely unless one of the following occurs: disease progression, inter-current illness that prevents further administration of treatment, unacceptable adverse events or pregnancy, patient non-compliance with the protocol, patient withdraws consent for participation from the study, and/or general or specific changes in the patient's condition render the patient unacceptable for further treatment in the judgment of the Investigator.

[1] = doses of 20 mg/m^2 and higher (n=18)

B1: XMT-1536: about 10-15 molecules of auristatin F-hydroxypropyl amide conjugated to a cysteine moiety of NaPi2b monoclonal antibody XMT-1535 via a PHF scaffold (conjugate, chains of the INN, looked up)
VH: QVQLVQSGAEVVKPGASVKMSCKASGYTFTGYNIHWVKQAPGQGLEWIGAIYPGNGDTSYKQKFRGRATLTADTSTSTVYMELSSLRSEDSAVYYCARGETARATFAYWGQGTLVTVSS
VL: DIQMTQSPSSLSASVGDRVTITCSASQDIGNFLNWYQQKPGKTVKVLIYYTSSLYSGVPSRFSGSGSGTDYTLTISSLQPEDFATYYCQQYSKLPLTFGQGTKLELK
modifications: auristatin F-hydroxypropyl amide via PHF scaffold
notes: about 10-15 molecules of auristatin F-hydroxypropyl amide conjugated to a cysteine moiety of NaPi2b monoclonal antibody XMT-1535 via a PHF scaffold
All NSCLC, N 3
  Treatment duration >16 weeks: 33%
  Treatment duration >16 weeks, patients: 1
All Ovarian Cancer (OC), N 19
  Treatment duration >16 weeks: 42%
  Treatment duration >16 weeks, patients: 8
DL1 3 mg/m^2, n = 1
  discontinued for Progressive Disease per RECIST, patients: 1
DL2 6 mg/m^2, n = 1
  discontinued for Progressive Disease per RECIST, patients: 1
DL3 12 mg/m^2, n = 7
  discontinued for Clinical Progression, patients: 4
  discontinued for Progressive Disease per RECIST, patients: 3
DL4 & 4A 20 mg/m^2, n = 13
  discontinued for Clinical Progression, patients: 2
  discontinued for Progressive Disease per RECIST, patients: 7
DL5 & 5A 30 mg/m^2, n = 11
  discontinued for Clinical Progression, patients: 3
  discontinued for Progressive Disease per RECIST, patients: 6
NSCLC ≥ 20 mg/m^2, N 2
  Treatment duration >16 weeks: 50%
  Treatment duration >16 weeks, patients: 1
OC + NSCLC ≥ 20 mg/m^2, N 18
  Treatment duration >16 weeks: 56%
  Treatment duration >16 weeks, patients: 10
OC ≥ 20 mg/m^2, N 16
  Treatment duration >16 weeks: 57%
  Treatment duration >16 weeks, patients: 9
OC ≥ 30 mg/m^2, N 7
  Treatment duration >16 weeks: 43%
  Treatment duration >16 weeks, patients: 3
Total, n = 34
  discontinued for Clinical Progression: (26%)
  discontinued for Clinical Progression, patients: 9
  discontinued for Progressive Disease per RECIST: (53%)
  discontinued for Progressive Disease per RECIST, patients: 18
[1]
  treatment duration of >16 weeks: 50%
  treatment duration of >16 weeks, patients: 9

From patent US11407825B2, “NaPi2b-targeted polymer antibody-drug conjugates and methods of use thereof” (Mersana Therapeutics, Inc., priority 2018, dated 2022)
